Test results reported in US20230263863A1, “COMPOSITIONS HAVING NEUROREGENERATIVE APPLICATIONS” (GRIFOLS WORLDWIDE OPERATIONS LIMITED, priority 2020, published 2023).

System: SH-SY5Y cells
Experiment: Neurite outgrowth (Outgrowth Fold Change) in undifferentiated SH-SY5Y cells
Type: cell-based, human
Details: for neurogenesis / differentiation (neurite outgrowth): all proteins 0.2 mg/mL
Method: Undifferentiated SH-SY5Y cells were seeded into 96 well clear bottom plates in media containing 0.1% FBS. A serum-free base media was utilized as recommended by the supplier for SH-SY5Y cells (Sigma, Cat #94030304-1VL). Twenty-four hours after seeding cells, a 3× stock solution of ApoTf, final concentrations indicated on the x-axis, in serum free base media was added to the cells. ApoTf was obtained and purified from pooled human plasma and dosed at a final concentration of 0.2 mg/mL. Cells were allowed to differentiate for 6 days. Neurite growth was assessed by imaging and image analysis. At the time of analysis, a 10× solution of Tubulin Tracker (Molecular Probes, T34075) and Hoechst 33342 (Molecular Probes #H3570) nuclear stain was prepared.
Briefly, Tubulin Tracker dissolved in DMSO was diluted 1:1 with Pluronic F-127 and further diluted into HBSS to generate a 10× solution. Hoechst 33342 was added to the HBSS-Tubulin Tracker solution at 10 μg/mL to generate a 10× nuclear stain. The 10× staining solution (10 μL) was added directly to treated assay wells and incubated at 37° C. for 30 minutes. Following incubation, 110 μL of 0.4% Trypan Blue was added directly to assay wells and imaged on a Molecular Devices Nano imaging instrument. Nine images/well were acquired in the blue (Nuclei) and green (Tubulin) fluorescent channels for each image.
After obtaining images, the MetaExpress Neurite Outgrowth analysis module (Molecular Devices) was used to identify cells, cell bodies, and quantify neurites. The total number of neurite branches were divided by the total number of cells imaged to account for different numbers of cells in each test well. The Outgrowth Fold Change was determined by setting the untreated control cells to a value of 1 with all other treatments shown relative to untreated control.

B1: apo-lactoferrin: structural and functional homologue of apo-transferrin, from Athens Research & Technology (protein, UniProt P02788 20-710, looked up)
Lactotransferrin: GRRRSVQWCAVSQPEATKCFQWQRNMRKVRGPPVSCIKRDSPIQCIQAIAENRADAVTLDGGFIYEAGLAPYKLRPVAAEVYGTERQPRTHYYAVAVVKKGGSFQLNELQGLKSCHTGLRRTAGWNVPIGTLRPFLNWTGPPEPIEAAVARFFSASCVPGADKGQFPNLCRLCAGTGENKCAFSSQEPYFSYSGAFKCLRDGAGDVAFIRESTVFEDLSDEAERDEYELLCPDNTRKPVDKFKDCHLARVPSHAVVARSVNGKEDAIWNLLRQAQEKFGKDKSPKFQLFGSPSGQKDLLFKDSAIGFSRVPPRIDSGLYLGSGYFTAIQNLRKSEEEVAARRARVVWCAVGEQELRKCNQWSGLSEGSVTCSSASTTEDCIALVLKGEADAMSLDGGYVYTAGKCGLVPVLAENYKSQQSSDPDPNCVDRPVEGYLAVAVVRRSDTSLTWNSVKGKKSCHTAVDRTAGWNIPMGLLFNQTGSCKFDEYFSQSCAPGSDPRSNLCALCIGDEQGENKCVPNSNERYYGYTGAFRCLAENAGDVAFVKDVTVLQNTDGNNNEAWAKDLKLADFALLCLDGKRKPVTEARSCHLAMAPNHAVVSRMDKVERLKQVLLHQQAKFGRNGSDCPDKFCLFQSETKNLLFNDNTECLARLHGKTTYEKYLGPQYVAGITNLKKCSTSPLLEACEFLRK
modifications: apo form
notes: structural and functional homologue of apo-transferrin, from Athens Research & Technology
FIG. 4
  neurogenesis / differentiation (neurite outgrowth): induced differentiation

B2: N-mut rec ApoTf: Y95F/Y188F transferrin N-lobe mutant protein, SEQ ID NO: 4, reduced iron-binding capacity (protein)
chain: VPDKTVRWCAVSEHEATKCQSFRDHMKSVIPSDGPSVACVKKASYLDCIRAIAANEADAVTLDAGLVYDAYLAPNNLKPVVAEFYGSKEDPQTFFYAVAVVKKDSGFQMNQLRGKKSCHTGLGRSAGWNIPIGLLYCDLPEPRKPLEKAVANFFSGSCAPCADGTDFPQLCQLCPGCGCSTLNQYFGFSGAFKCLKDGAGDVAFVKHSTIFENLANKADRDQYELLCLDNTRKPVDEYKDCHLAQVPSHTVVARSMGGKEDLIWELLNQAQEHFGKDKSKEFQLFSSPHGKDLLFKDSAHGFLKVPPRMDAKMYLGYEYVTAIRNLREGTCPEAPTDECKPVKWCALSHHERLKCDEWSVNSVGKIECVSAETTEDCIAKIMNGEADAMSLDGGFVYIAGKCGLVPVLAENYNKSDNCEDTPEAGYFAVAVVKKSASDLTWDNLKGKKSCHTAVGRTAGWNIPMGLLYNKINHCRFDEFFSEGCAPGSKKDSSLCKLCMGSGLNLCEPNNKEGYYGYTGAFRCLVEKGDVAFVKHQTVPQNTGGKNPDPWAKNLNEKDYELLCLDGTRKPVEEYANCHLARAPNHAVVTRKDKEACVHKILRQQQHLFGSNVTDCSGNFCLFRSETKDLLFRDDTVCLAKLHDRNTYEKYLGEEYVKAVGNLRKCSTSSLLEACTFRRP
modifications: Y95F/Y188F mutant
FIG. 3B
  neurogenesis / differentiation (neurite outgrowth): almost equal to that of ApoTf and rec ApoTf at inducing differentiation

B3: BDNF: brain-derived neurotrophic factor; NGF superfamily; SEQ ID NO: 6 (protein, listed as Homo sapiens)
chain: MFHQVRRVMTILFLTMVISYFGCMKAAPMKEANIRGQGGLAYPGVRTHGTLESVNGPKAGSRGLTSLADTFEHVIEELLDEDQKVRPNEENNKDADLYTSRVMLSSQVPLEPPLLFLLEEYKNYLDAANMSMRVRRHSDPARRGELSVCDSISEWVTAADKKTAVDMSGGTVTVLEKVPVSKGQLKQYFYETKCNPMGYTKEGCRGIDKRHWNSQCRTTQSYVRALTMDSKKRIGWRFIRIDTSCVCTLTIKRGR
FIGS. 7A-7D, absence of ApoTf, BDNF 25 ng/mL, GDNF 1000 ng/mL, CNTF 250 ng/mL, PACAP 200 nM
  differentiation (neurite outgrowth), factor alone: differentiation was not induced
